B1: HDV Ribozyme (parent)
chain: GGCCGGCAUGGUCCCAGCCUCCUCGCUGGCGCCGGCUGGGCAACAUUCCGAGGGGACCGUCCCCUCGGUAAUGGCGAAUGGGACCCA

In the data set the parent is B1. As to the kind of experiment: self-cleavage, relative activity (ratio to wild type); higher = more cleavage; co-transcriptional.
Consider GGCCGGCCUGGUCCUAGCCUCCUCGCUGGCGCCGGCUGGGCAACAUUCCGAGGGGACCGUCCCCUCGGUAAUGGCGAAUGGGACCCA [A8C C15U], for which the self-cleavage was 0.604. The value for GGCCGGCCUGGUCCGAGCCUCCUCGCUGGCGCCGGCUGGGCAACAUUCCGAGGGGACCGUCCCCUCGGUAAUGGCGAAUGGGACCCA [A8C C15G] was 0.378; that for GGCCGGCCUGGUCCCAGCCUCCUCGCUGGCGCCGGCUGGGCAACAUUCCGAGGGGACCGUCCCCUCGGUAAUGGCGAAUGGGACCCA [A8C] was 0.859; that for GGCCGGUAUGGUCCCAGCCUCCCCGCUGGCGCCGGCUGGGCAACAUUCCGAGGGGACCGUCCCCUCGGUAAUGGCGAAUGGGACCCA [C7U U23C] was 0.516. The value for GGCCGGUAUGGUCCCAGCCUCCACGCUGGCGCCGGCUGGGCAACAUUCCGAGGGGACCGUCCCCUCGGUAAUGGCGAAUGGGACCCA [C7U U23A] was 0.923; that for GGCCGGUAUGGUCCCAGCCUCCUCGCUGGCGCCGGCUGGGCAACAUUCCGAGGGGACCGUCCCCUCGGUAAUGGCGAAUCGGACCCA [C7U G80C] was 0.0773. The value for GGCCGGUAUGGUCCCAGCCUCCUCGCUGGCGCCGGCUGGGCAACAUUCCGAGGGGACCGUCCCCUCGGUAAUGGCGAAUAGGACCCA [C7U G80A] was 0.164; that for GGCCGGUAUGGUCCCAGCCUCCUCGCUGGCGCCGGCUGGGCAACAUUCCGAGCGGACCGUCCCCUCGGUAAUGGCGAAUGGGACCCA [C7U G53C] was 1.12; that for GGCCGGUAUGGUCCCAGCCUCCUCGCUGGCGCCGGCUGGGCAACAUUCCGAGGGGACCGUCCCCUCGGUAAGGGCGAAUGGGACCCA [C7U U72G] was 0.332. GGCCGGUAUGGUCCCAGCCUCCUCGCUGGCGCCGGCUGGGCAACAUUCCGAGGGGACCGUCCCCUCGGUAACGGCGAAUGGGACCCA [C7U U72C]: the self-cleavage was 0.268. To GGCCGGUAUGGUCCCAGCCUCCUCGCUGGCGCCGGCUGGGCAACAUUCCGAGGGGACCGUCCCCUCGGUAAAGGCGAAUGGGACCCA [C7U U72A] belongs 0.604. The value for GGCCGGUAUGGUCCCAGCCUCCUCGCUGGCGCCGGCUGGGCAACAUUCCGAGGGUACCGUCCCCUCGGUAAUGGCGAAUGGGACCCA [C7U G55U] was 0.815; that for GGCCGGUAUGGUCCCAGCCUCCUCGCUGGCGCCGGCUGGGCAACAUUCCGAGGGGACCGUCCCCUCGGUAAUGGCGAAUGGUACCCA [C7U G82U] was 0.0678. To GGCCGGUAUGGUCCCAGCCUCCUCGCUGGCGCCGGCUGGGCAACAUUCCGAGGGGACCGUCCCCUCGGUAAUGGCGAAUGGAACCCA [C7U G82A] belongs 0.251. As to GGCCGGUAUGGUCCCAGCCACCUCGCUGGCGCCGGCUGGGCAACAUUCCGAGGGGACCGUCCCCUCGGUAAUGGCGAAUGGGACCCA [C7U U20A], the self-cleavage came out at 0.0594. With GGCCGGUAUGGUCCCAGCCGCCUCGCUGGCGCCGGCUGGGCAACAUUCCGAGGGGACCGUCCCCUCGGUAAUGGCGAAUGGGACCCA [C7U U20G], the self-cleavage came out at 0.133. As for GGCCGGUAUGGUCCCAGCCCCCUCGCUGGCGCCGGCUGGGCAACAUUCCGAGGGGACCGUCCCCUCGGUAAUGGCGAAUGGGACCCA [C7U U20C], the self-cleavage is 0.

In the case of GGCCGGUAUGGUCCCAGCCUCCUCGCUGGCGCCGGCUGGGCAACAUGCCGAGGGGACCGUCCCCUCGGUAAUGGCGAAUGGGACCCA [C7U U47G], the self-cleavage was determined as 0.9.

In the case of GGCCGGUAUGGUCCCAGCCUCCUCGCUGGCGCCGGCUGGGCAACAUACCGAGGGGACCGUCCCCUCGGUAAUGGCGAAUGGGACCCA [C7U U47A], the self-cleavage was 0.554. The value for GGCCGGUAUGGUCCCAGCCUCCUCGCUGGCGCCGGCUGGGCAACAUUCCGAGGAGACCGUCCCCUCGGUAAUGGCGAAUGGGACCCA [C7U G54A] was 0.787; that for GGCCGGUAUGGUCCCAGCCUCCUCGCUGGCGCCGGCCGGGCAACAUUCCGAGGGGACCGUCCCCUCGGUAAUGGCGAAUGGGACCCA [C7U U37C] was 1.14; that for GGCCGGUAUGGUCCCAGCCUCCUCGCUGGCGCCGGCAGGGCAACAUUCCGAGGGGACCGUCCCCUCGGUAAUGGCGAAUGGGACCCA [C7U U37A] was 0.0739.

As for GGCCGGUACGGUCCCAGCCUCCUCGCUGGCGCCGGCUGGGCAACAUUCCGAGGGGACCGUCCCCUCGGUAAUGGCGAAUGGGACCCA [C7U U9C], the self-cleavage was found to be 1.02. The value for GGCCGGCCUGGUCUCAGCCUCCUCGCUGGCGCCGGCUGGGCAACAUUCCGAGGGGACCGUCCCCUCGGUAAUGGCGAAUGGGACCCA [A8C C14U] was 0.831. To GGCCGGCCUGGUCGCAGCCUCCUCGCUGGCGCCGGCUGGGCAACAUUCCGAGGGGACCGUCCCCUCGGUAAUGGCGAAUGGGACCCA [A8C C14G] belongs 0.237; to GGCCGGCCUGGUCACAGCCUCCUCGCUGGCGCCGGCUGGGCAACAUUCCGAGGGGACCGUCCCCUCGGUAAUGGCGAAUGGGACCCA [A8C C14A], 0.375; to GGCCGGCCUGGUCCCAGCCUCCUCGCUGGCGCCGGCUGGGCGACAUUCCGAGGGGACCGUCCCCUCGGUAAUGGCGAAUGGGACCCA [A8C A42G], 0.462.

Turning to GGCCGGUAUGGUCCCAGCCUCCUCGCUGGCGCCGGCUGGGCAACAUUCCGAGGGGACCCUCCCCUCGGUAAUGGCGAAUGGGACCCA [C7U G59C], the self-cleavage came out at 0.848.

As for GGCCGGUAUGGUCCCAGCCUCCUCGCUGGCGCCGGCUGGGCAACAUUCCGAGGGGACCGUCCCCUCGAUAAUGGCGAAUGGGACCCA [C7U G68A], the self-cleavage turned out to be 0.969. To GGCCGGUAUGGUCCCAGCCUCCUCGCUGGCGCCGGCUGGGCAACAUUCCGAGGGGACCGUCCCCUCGCUAAUGGCGAAUGGGACCCA [C7U G68C] belongs 0.704; to GGCCGGUAUGGUCCCAGCCUCCUCGCUGGCGCCGGCUGGGCAACAUUCCGAGGGGACCGUCCCCUCGGUAAUGGCGAAGGGGACCCA [C7U U79G], 0.434. The value for GGCCGGUAUGGUCCCAGCCUCCUCGCUGGCGCCGGCUGGGCAACAUUCCGAGGGGACCGUCCCCUCGGUAAUGGCGAACGGGACCCA [C7U U79C] was 0.126.

Source of the values: the RNAGym collection of RNA variant scans (doi:10.7554/elife.80360).
